Test results from PMC4813479 (The Journal of Biological Chemistry, 2015).

Molecular target: full-length human αIIbβ3 on CHO K1 cells (human, UniProt P08514 32-1039; P05106 27-788)
Test: cell-based or functional assay

EC50 of LIBS1 epitope exposure on CHO cells expressing αIIbβ3 (flow cytometry, 1 mM Mg2+ and 1 mM Ca2+): 1430 µM
Binder: AGDV [AGDV tetrapeptide]
